Numbered stars: 1 amine (or outer) side, 2 acyl side, 3 side chain; on linkers, the order of the positions; unused ones are H or OH. Bridge positions count the residues as written; N and C are the ends. Side chains are listed from the residue outwards. Ends that are not written are not given here. * marks the point of attachment. C20 diacid = O=C(O)CCCCCCCCCCCCCCCCCCC(=O)*; γGlu = O=C(O)[C@H](CCC(=O)[*:2])N[*:1]
T1: human amylin 3(a) receptor (human calcitonin receptor plus RAMP-3) (human, UniProt P30988 25-474; O60896 24-148, limits assumed)
T1 sequence (looked up) 1: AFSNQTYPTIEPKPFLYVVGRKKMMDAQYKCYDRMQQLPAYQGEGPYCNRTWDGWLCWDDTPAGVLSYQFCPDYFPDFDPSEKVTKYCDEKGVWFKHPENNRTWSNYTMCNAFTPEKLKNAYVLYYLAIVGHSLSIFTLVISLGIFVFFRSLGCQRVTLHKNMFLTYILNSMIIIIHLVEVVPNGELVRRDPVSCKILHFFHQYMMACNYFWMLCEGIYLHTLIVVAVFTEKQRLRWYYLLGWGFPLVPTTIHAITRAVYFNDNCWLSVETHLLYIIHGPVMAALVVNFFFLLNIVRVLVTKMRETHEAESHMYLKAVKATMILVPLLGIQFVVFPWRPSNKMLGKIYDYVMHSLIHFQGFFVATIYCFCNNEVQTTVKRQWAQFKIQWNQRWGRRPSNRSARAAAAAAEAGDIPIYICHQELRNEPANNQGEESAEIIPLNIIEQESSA
T1 sequence (looked up) 2: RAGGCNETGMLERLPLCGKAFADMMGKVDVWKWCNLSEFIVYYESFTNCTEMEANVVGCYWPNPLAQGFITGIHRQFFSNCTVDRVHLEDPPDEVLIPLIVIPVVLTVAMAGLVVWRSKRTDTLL

T2: human calcitonin receptor (human, UniProt P30988 25-474)
T2 sequence (looked up): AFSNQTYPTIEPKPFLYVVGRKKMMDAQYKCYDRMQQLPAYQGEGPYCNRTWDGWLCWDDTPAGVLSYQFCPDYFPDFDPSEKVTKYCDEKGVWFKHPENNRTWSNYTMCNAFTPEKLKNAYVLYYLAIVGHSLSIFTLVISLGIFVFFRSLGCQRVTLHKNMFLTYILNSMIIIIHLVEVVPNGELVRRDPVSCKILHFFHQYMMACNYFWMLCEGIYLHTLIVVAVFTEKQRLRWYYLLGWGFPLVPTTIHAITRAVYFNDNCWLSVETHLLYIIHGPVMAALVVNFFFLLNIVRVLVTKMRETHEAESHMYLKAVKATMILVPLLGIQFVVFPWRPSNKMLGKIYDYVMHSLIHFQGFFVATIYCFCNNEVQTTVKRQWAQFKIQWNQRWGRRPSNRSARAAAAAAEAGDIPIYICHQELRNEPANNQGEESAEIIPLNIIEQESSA

B1: N^ε1-[(4S)-4-carboxy-4-[[(4S)-4-carboxy-4-(19-carboxynonadecanoylamino)butanoyl]amino]butanoyl]-[Glu14,Arg17,Pro21,Pro27,Pro34,Arg35]-h-amylin (peptide)
peptide: K([γGlu-γGlu-C20 diacid])CNTATCATQRLAEFLRHSSPNFGAIPSSTNVGPRTY-NH2
modifications: disulfide 2-7; N-terminus assumed
SMILES: CC[C@H](C)[C@H](NC(=O)[C@H](C)NC(=O)CNC(=O)[C@H](Cc1ccccc1)NC(=O)[C@H](CC(N)=O)NC(=O)[C@@H]1CCCN1C(=O)[C@H](CO)NC(=O)[C@H](CO)NC(=O)[C@H](Cc1c[nH]cn1)NC(=O)[C@H](CCCNC(=N)N)NC(=O)[C@H](CC(C)C)NC(=O)[C@H](Cc1ccccc1)NC(=O)[C@H](CCC(=O)O)NC(=O)[C@H](C)NC(=O)[C@H](CC(C)C)NC(=O)[C@H](CCCNC(=N)N)NC(=O)[C@H](CCC(N)=O)NC(=O)[C@@H](NC(=O)[C@H](C)NC(=O)[C@@H]1CSSC[C@H](NC(=O)[C@@H](N)CCCCNC(=O)CC[C@H](NC(=O)CC[C@H](NC(=O)CCCCCCCCCCCCCCCCCCC(=O)O)C(=O)O)C(=O)O)C(=O)N[C@@H](CC(N)=O)C(=O)N[C@@H]([C@@H](C)O)C(=O)N[C@@H](C)C(=O)N[C@@H]([C@@H](C)O)C(=O)N1)[C@@H](C)O)C(=O)N1CCC[C@H]1C(=O)N[C@@H](CO)C(=O)N[C@@H](CO)C(=O)N[C@H](C(=O)N[C@@H](CC(N)=O)C(=O)N[C@H](C(=O)NCC(=O)N1CCC[C@H]1C(=O)N[C@@H](CCCNC(=N)N)C(=O)N[C@H](C(=O)N[C@@H](Cc1ccc(O)cc1)C(N)=O)[C@@H](C)O)C(C)C)[C@@H](C)O
notes: also called compound 110
B2: N^ε1-[(4S)-4-carboxy-4-[[(4S)-4-carboxy-4-(19-carboxynonadecanoylamino)butanoyl]amino]butanoyl]-[Glu14,Arg17,Pro21,Pro27,Pro34,Glu35]-h-amylin (peptide)
peptide: K([γGlu-γGlu-C20 diacid])CNTATCATQRLAEFLRHSSPNFGAIPSSTNVGPETY-NH2
modifications: disulfide 2-7; N-terminus assumed
SMILES: CC[C@H](C)[C@H](NC(=O)[C@H](C)NC(=O)CNC(=O)[C@H](Cc1ccccc1)NC(=O)[C@H](CC(N)=O)NC(=O)[C@@H]1CCCN1C(=O)[C@H](CO)NC(=O)[C@H](CO)NC(=O)[C@H](Cc1c[nH]cn1)NC(=O)[C@H](CCCNC(=N)N)NC(=O)[C@H](CC(C)C)NC(=O)[C@H](Cc1ccccc1)NC(=O)[C@H](CCC(=O)O)NC(=O)[C@H](C)NC(=O)[C@H](CC(C)C)NC(=O)[C@H](CCCNC(=N)N)NC(=O)[C@H](CCC(N)=O)NC(=O)[C@@H](NC(=O)[C@H](C)NC(=O)[C@@H]1CSSC[C@H](NC(=O)[C@@H](N)CCCCNC(=O)CC[C@H](NC(=O)CC[C@H](NC(=O)CCCCCCCCCCCCCCCCCCC(=O)O)C(=O)O)C(=O)O)C(=O)N[C@@H](CC(N)=O)C(=O)N[C@@H]([C@@H](C)O)C(=O)N[C@@H](C)C(=O)N[C@@H]([C@@H](C)O)C(=O)N1)[C@@H](C)O)C(=O)N1CCC[C@H]1C(=O)N[C@@H](CO)C(=O)N[C@@H](CO)C(=O)N[C@H](C(=O)N[C@@H](CC(N)=O)C(=O)N[C@H](C(=O)NCC(=O)N1CCC[C@H]1C(=O)N[C@@H](CCC(=O)O)C(=O)N[C@H](C(=O)N[C@@H](Cc1ccc(O)cc1)C(N)=O)[C@@H](C)O)C(C)C)[C@@H](C)O
B3: N^ε1-[(4S)-4-carboxy-4-[[(4S)-4-carboxy-4-(19-carboxynonadecanoylamino)butanoyl]amino]butanoyl]-[Glu14,Arg17,Pro21,Pro27,Pro34,His35]-h-amylin (peptide)
peptide: K([γGlu-γGlu-C20 diacid])CNTATCATQRLAEFLRHSSPNFGAIPSSTNVGPHTY-NH2
modifications: disulfide 2-7 (inferred)
B4: N^ε1-[(4S)-4-carboxy-4-[[(4S)-4-carboxy-4-(19-carboxynonadecanoylamino)butanoyl]amino]butanoyl]-[Glu14,Arg17,Pro21,Pro27,Pro37]-h-amylin (peptide)
peptide: K([γGlu-γGlu-C20 diacid])CNTATCATQRLAEFLRHSSPNFGAIPSSTNVGSNTP-NH2
modifications: disulfide 2-7 (inferred)
notes: also called compound 13
B5: N^ε1-[(4S)-4-carboxy-4-[[(4S)-4-carboxy-4-(19-carboxynonadecanoylamino)butanoyl]amino]butanoyl]-[Glu14,Arg17,Pro21,Pro31,Pro34,Glu35]-h-amylin (peptide)
peptide: K([γGlu-γGlu-C20 diacid])CNTATCATQRLAEFLRHSSPNFGAILSSTPVGPETY-NH2
modifications: disulfide 2-7 (inferred)
B6: N^ε1-[(4S)--4-carboxy-4-(19-carboxynonadecanoylamino)butanoyl]-[Glu14,Arg17,Pro21,Pro27,Pro37]-h-amylin (peptide)
peptide: K([γGlu-C20 diacid])CNTATCATQRLAEFLRHSSPNFGAIPSSTNVGSNTP-NH2
modifications: disulfide 2-7; N-terminus assumed
SMILES: CC[C@H](C)[C@H](NC(=O)[C@H](C)NC(=O)CNC(=O)[C@H](Cc1ccccc1)NC(=O)[C@H](CC(N)=O)NC(=O)[C@@H]1CCCN1C(=O)[C@H](CO)NC(=O)[C@H](CO)NC(=O)[C@H](Cc1c[nH]cn1)NC(=O)[C@H](CCCNC(=N)N)NC(=O)[C@H](CC(C)C)NC(=O)[C@H](Cc1ccccc1)NC(=O)[C@H](CCC(=O)O)NC(=O)[C@H](C)NC(=O)[C@H](CC(C)C)NC(=O)[C@H](CCCNC(=N)N)NC(=O)[C@H](CCC(N)=O)NC(=O)[C@@H](NC(=O)[C@H](C)NC(=O)[C@@H]1CSSC[C@H](NC(=O)[C@@H](N)CCCCNC(=O)CC[C@H](NC(=O)CCCCCCCCCCCCCCCCCCC(=O)O)C(=O)O)C(=O)N[C@@H](CC(N)=O)C(=O)N[C@@H]([C@@H](C)O)C(=O)N[C@@H](C)C(=O)N[C@@H]([C@@H](C)O)C(=O)N1)[C@@H](C)O)C(=O)N1CCC[C@H]1C(=O)N[C@@H](CO)C(=O)N[C@@H](CO)C(=O)N[C@H](C(=O)N[C@@H](CC(N)=O)C(=O)N[C@H](C(=O)NCC(=O)N[C@@H](CO)C(=O)N[C@@H](CC(N)=O)C(=O)N[C@H](C(=O)N1CCC[C@H]1C(N)=O)[C@@H](C)O)C(C)C)[C@@H](C)O
notes: also called compound 12
B7: N{Alpha-1}-[(4S)-4-carboxy-4-(19-carboxynonadecanoylamino)butanoyl]-[Glu14,Arg17,Pro21,Pro27,Lys34]-h-amylin (peptide)
peptide: {C20 diacid-γGlu}-KCNTATCATQRLAEFLRHSSPNFGAIPSSTNVGKNTY-NH2
modifications: disulfide 2-7
SMILES: CC[C@H](C)[C@H](NC(=O)[C@H](C)NC(=O)CNC(=O)[C@H](Cc1ccccc1)NC(=O)[C@H](CC(N)=O)NC(=O)[C@@H]1CCCN1C(=O)[C@H](CO)NC(=O)[C@H](CO)NC(=O)[C@H](Cc1c[nH]cn1)NC(=O)[C@H](CCCNC(=N)N)NC(=O)[C@H](CC(C)C)NC(=O)[C@H](Cc1ccccc1)NC(=O)[C@H](CCC(=O)O)NC(=O)[C@H](C)NC(=O)[C@H](CC(C)C)NC(=O)[C@H](CCCNC(=N)N)NC(=O)[C@H](CCC(N)=O)NC(=O)[C@@H](NC(=O)[C@H](C)NC(=O)[C@@H]1CSSC[C@H](NC(=O)[C@H](CCCCN)NC(=O)CC[C@H](NC(=O)CCCCCCCCCCCCCCCCCCC(=O)O)C(=O)O)C(=O)N[C@@H](CC(N)=O)C(=O)N[C@@H]([C@@H](C)O)C(=O)N[C@@H](C)C(=O)N[C@@H]([C@@H](C)O)C(=O)N1)[C@@H](C)O)C(=O)N1CCC[C@H]1C(=O)N[C@@H](CO)C(=O)N[C@@H](CO)C(=O)N[C@H](C(=O)N[C@@H](CC(N)=O)C(=O)N[C@H](C(=O)NCC(=O)N[C@@H](CCCCN)C(=O)N[C@@H](CC(N)=O)C(=O)N[C@H](C(=O)N[C@@H](Cc1ccc(O)cc1)C(N)=O)[C@@H](C)O)C(C)C)[C@@H](C)O
notes: also called compound 36
B8: N^α1 N^α1-[(4S)-4-carboxy-4-[[(4S)-4-carboxy-4-(19-carboxynonadecanoylamino)butanoyl]amino]butanoyl]-[Glu14,Arg17,Pro21,Pro27]-h-amylin (peptide)
peptide: {C20 diacid-γGlu-γGlu}-KCNTATCATQRLAEFLRHSSPNFGAIPSSTNVGSNTY-NH2
modifications: disulfide 2-7
SMILES: CC[C@H](C)[C@H](NC(=O)[C@H](C)NC(=O)CNC(=O)[C@H](Cc1ccccc1)NC(=O)[C@H](CC(N)=O)NC(=O)[C@@H]1CCCN1C(=O)[C@H](CO)NC(=O)[C@H](CO)NC(=O)[C@H](Cc1c[nH]cn1)NC(=O)[C@H](CCCNC(=N)N)NC(=O)[C@H](CC(C)C)NC(=O)[C@H](Cc1ccccc1)NC(=O)[C@H](CCC(=O)O)NC(=O)[C@H](C)NC(=O)[C@H](CC(C)C)NC(=O)[C@H](CCCNC(=N)N)NC(=O)[C@H](CCC(N)=O)NC(=O)[C@@H](NC(=O)[C@H](C)NC(=O)[C@@H]1CSSC[C@H](NC(=O)[C@H](CCCCN)NC(=O)CC[C@H](NC(=O)CC[C@H](NC(=O)CCCCCCCCCCCCCCCCCCC(=O)O)C(=O)O)C(=O)O)C(=O)N[C@@H](CC(N)=O)C(=O)N[C@@H]([C@@H](C)O)C(=O)N[C@@H](C)C(=O)N[C@@H]([C@@H](C)O)C(=O)N1)[C@@H](C)O)C(=O)N1CCC[C@H]1C(=O)N[C@@H](CO)C(=O)N[C@@H](CO)C(=O)N[C@H](C(=O)N[C@@H](CC(N)=O)C(=O)N[C@H](C(=O)NCC(=O)N[C@@H](CO)C(=O)N[C@@H](CC(N)=O)C(=O)N[C@H](C(=O)N[C@@H](Cc1ccc(O)cc1)C(N)=O)[C@@H](C)O)C(C)C)[C@@H](C)O
notes: also called compound 15
B9: N^α1-[2-[2-[2-[[2-[2-[2-[[(4S)-4-carboxy-4-(19-carboxynonadecanoylamino)butanoyl]amino]ethoxy]ethoxy]acetyl]amino]ethoxy]ethoxy]acetyl]-[Glu14,Arg17,Pro21,Pro27 … (peptide)
peptide: KCNTATCATQRLAEFLRHSSPNFGAIPSSTNVGSNTY
modifications: C20 diacid-gGlu-2xOEG on the alpha amino group of the N-terminal residue (position 1); disulfide bridge Cys2-Cys7; C-terminal amide
notes: also called compound 19

Key:
[1] = biological target: T1, human amylin 3(a) receptor (human …); experiment: cell-based or functional assay
[2] = biological target: T2, human calcitonin receptor; experiment: cell-based or functional assay
[3] = biological target: T1, human amylin 3(a) receptor (human …); experiment: SPA competition binding, displacement of 125I-rat amylin from membranes of Amylin 3(a)/CRE-luc BHK cells (Assay V)
In short: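 One-site competition analysis of SPA counts yielded IC₅₀ as a measure of affinity. Membranes were at 35 ng/μL final; incubation was 120 min at 25° C, pH 7.4.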

Row | Binder | hAmylin-R funct. EC50 [1] [nM] | hCTR funct. EC50 [2] [nM] | IC50 [3] [nM] | Ratio hCT/hAmylin funct. [1]
1 | B1 | 0.278 | 8.16 | 0.326 | –
2 | B2 | 0.225 | 2.36 | 0.121 | –
3 | B3 | 0.172 | 2.83 | 0.377 | –
4 | B4 | 0.213 | 0.47 | 0.264 | 2.2
5 | B5 | 0.222 | 1.28 | 0.069 | 5.8
6 | B6 | 0.101 | 0.185 | 0.142 | 1.8
7 | B7 | 0.189 | 1.28 | 0.403 | 6.8
8 | B8 | 0.386 | 3.43 | 0.597 | 8.9
9 | B9 | 0.307 | 5.32 | 0.556 | 17.4

Reference: patent US20140087995A1 (published 2014)
